Assay results: paper doi:10.1101/2021.10.12.464104 (bioRxiv, 2021)

Molecular target: mCer-α1 (human Na+/K+-ATPase α1 subunit fused to the C-terminus of mCerulean) (human, UniProt P05023 1-1023)
Assay: FRET or BRET

B1: PLM-YFP (human phospholemman fused to the N-terminus of YFP) (natural protein)
chain: ESPKEHDPFTYDYQSLQIGGLVIAGILFILGILIVLSRRCRCKFNQQQRTGEPDEEEGTFRSSIRRLSTRRR
- stoichiometry N: > 1
